In US20170319648A1 (BAO KANG BIOMEDICAL HEALTHCARE, published 2017):
Positions of bridges follow the written chain, without caps; N, C: chain ends. Non-standard residues stand in square brackets, D forms with d. No end group written: not given here. hCys = N[C@@H](CCS)C(=O)O

T1: TEAD
T1 chain: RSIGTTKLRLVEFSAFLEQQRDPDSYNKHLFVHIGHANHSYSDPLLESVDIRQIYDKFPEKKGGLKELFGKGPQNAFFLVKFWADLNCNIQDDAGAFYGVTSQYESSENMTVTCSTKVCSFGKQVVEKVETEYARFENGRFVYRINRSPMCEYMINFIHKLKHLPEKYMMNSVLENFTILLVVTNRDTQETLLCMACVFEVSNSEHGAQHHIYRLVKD


Target: T1, TEAD
Assay: IC50 for TEAD binding; method not named in the example (TR-FRET test is the filing's screening method)

IC50 [nM]	Binder
25	VPM[hCys]LRKLPCSFCDPPE (disulfide 4-13) [polypeptide of SEQ ID NO.: 9 (VPM(Hcy)LRKLPCSFCDPPE)]
28	VPMCLRKLPESFCHPPE (disulfide 4-13) [polypeptide of SEQ ID NO.: 8 (VPMCLRKLPESFCHPPE)]
